The target of the series is YB-1 (expressed from YB-1/RSV) (Homo sapiens) (UniProt P67809). The experiment in a line: cell_activity. The settings on record: human glioblastoma cells.

We go through two substances from patent US20020091083.

Consider “COL1A2 promoter -161 to +57 CAT non-binding reporter”, for which the activity (relative CAT activity) (no repression, empty vector pRc/RSV = 1.1) stood at 1.

On to “COL1A2 promoter -161 to +57 CAT binding reporter”, for which the activity (relative CAT activity) (repression, empty vector pRc/RSV = 1.0) was 0.6.
